Article doi:10.1101/2024.06.27.600884

Columns and labels:
Assay in all cases: EMSA
[1] = target: Myc-TRF2ΔBΔHinge (RRL) (UniProt Q15554 87-287+484-542, internal_change)
[2] = target: Myc-TRF2ΔBΔTRFH (RRL) (UniProt Q15554 288-542)
[3] = target: TRF2ΔBΔHinge (UniProt Q15554 87-287+484-542, internal_change)
[4] = target: TRF2ΔB-F59A (UniProt Q15554 87-542, F101A)
[5] = target: Myc-TRF2ΔB (RRL) (UniProt Q15554 87-542)
[6] = target: TRF2ΔBΔTRFH (UniProt Q15554 288-542)
[7] = target: TRF2ΔB (UniProt Q15554 87-542)

Measured: binding result

B1: 4-repeat telomeric probe (dsDNA)
DNA 1: GTACCCGGGGATCGTCGACTCTAGAGGGGCCCTAACCCTAACCCTAACCCTAACCCGGGCTCGAATTCGATCCTCTAGAGTCGACCTGCAGGCATGCAAGCU
DNA 2: AGCTTGCATGCCTGCAGGTCGACTCTAGAGGATCGAATTCGAGCCCGGGTTAGGGTTAGGGTTAGGGTTAGGGCCCCTCTAGAGTCGACGATCCCCGGGUAC
modifications: Cy5.5-dUTP incorporated by Klenow fill-in (U near both 3' ends)
binds: all assays above
